The test system of this data set is ATP. Kind of data set: switch fluorescence ratio, 500 uM ATP over buffer (Cy3 cluster intensity, sum of 5 cycles each) (fold (ratio)); higher = stronger signal-on switching upon ATP binding; sequences stand for … in TCGTCGGCAGCGTCAGATGTGTATAAGAGACAGTTTTTTTTTTTTTTTTTTTTTTTTT…TC. The note with it: aptamer strand: ATP DNA aptamer (quencher-CACCTGGGGGAGTATTGCGGAGGAAGG + anchor), 100 nM annealed; ATP concentration: 500 uM. In short, it runs like this:
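Five buffer/ATP imaging cycles were run on Cy3-labelled switching-strand clusters on a modified Illumina MiSeq flow-cell, with NaOH stripping and re-annealing between cycles. In each cycle, clusters annealed to 100 nM quencher-labelled ATP aptamer were imaged in selection buffer, then after 15 min with 500 uM ATP at 22 °C. Per cluster, the fluorescence ratio is summed target-cycle over summed buffer-cycle Cy3 intensity, averaged per switch-domain sequence. Only clusters within 100-1000 RFU were kept.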

± gives the standard deviation of the averaged measurements.
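Further: ATP exposure 15 min at 22 °C before imaging.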

Consider TGAGGGCGTT, for which the switch fluorescence ratio was found to be 0.995 ± 0.031. GGGAAAGTTT: the switch fluorescence ratio was 0.996 ± 0.023. With TTCCATTTGC the figure was 1.05 ± 0.074. Regarding TATTTTTCGC, the switch fluorescence ratio was determined as 0.967 ± 0.015. With ATTATATGGA the figure was 0.956 ± 0.01; with CTATATGTTG, 0.985 ± 0.053; with AGGTGTTTAA, 1.03 ± 0.061. With GTTTACTCTT the figure was 0.996 ± 0.025; with TCTGGGGAAT, 1 ± 0.035; with TTTATACTCT, 1.08 ± 0.026. With CAGGGGGCAC the figure was 1.05 ± 0.042; with AAGCGGGTTT, 0.96 ± 0.03.

Take GGTATATGGG: the switch fluorescence ratio was 0.994 ± 0.03.

Take GGGGTGATTG: the switch fluorescence ratio is 0.979 ± 0.0077. As for ATAATGTATA, the switch fluorescence ratio turned out to be 0.9835 ± 0.0028. To TAATCTAGAA belongs 1.019 ± 0.0017; to TAAGAGACGC, 1.014 ± 0.0061.

In the case of GCTGATTAG, the switch fluorescence ratio worked out at 0.954 ± 0.011. With TCAGGAAAGG the figure was 1.003 ± 0.0027. In the case of GACAGCGGCG, the switch fluorescence ratio amounted to 1.01 ± 0.032. In the case of TGAGAGGAAG, the switch fluorescence ratio is 0.989 ± 0.018. On to GGTTTAAATG, for which the switch fluorescence ratio was 1.0317 ± 0.00089.

Take TGCTTATTGG: the switch fluorescence ratio came out at 0.9725 ± 0.0081. With TTATGGGAA the figure was 1.04 ± 0.038; with GAATTTGAGC, 1.03 ± 0.02; with ATAGAAGGGT, 1.01 ± 0.026. With GGGGGGTACT the figure was 0.994 ± 0.033; with ACGGTGATAT, 1.03 ± 0.028; with TGCGATAAGC, 1.026 ± 0.01. To GAGACGGTCT belongs 1.05 ± 0.025. For the sequence AAGTCGGTCT, the switch fluorescence ratio came to 1.05 ± 0.1. To TTGGATCGCA belongs 0.985 ± 0.017; to GCTTGGACTA, 0.967 ± 0.011. To GACGGTCACT belongs 1.21 ± 0.013. To TTTATGGGAA belongs 1.01 ± 0.026. GGGATCCCTT: the switch fluorescence ratio was determined as 1.03 ± 0.05. With TTGTAACATT the figure was 1.015 ± 0.0014; with AAAAATTTGT, 0.993 ± 0.05. Turning to AAATATGAGC, the switch fluorescence ratio was 0.993 ± 0.033. For GATTGGTTGC, the switch fluorescence ratio turned out to be 0.9941 ± 0.0019. For the sequence GAAGCTTTAG, the switch fluorescence ratio came out at 1.06 ± 0.019. As to GAAGGGTTGG, the switch fluorescence ratio stood at 0.999 ± 0.014. With TTTATGAAAA, the switch fluorescence ratio stood at 1.025 ± 0.0066. ATATTTAGCG: the switch fluorescence ratio stood at 0.968 ± 0.016. For GAGGGAGGTC, the switch fluorescence ratio was 0.968 ± 0.043. For CGCGGAGGGT, the switch fluorescence ratio came out at 0.967 ± 0.016. With AGGGATTAGG the figure was 0.99 ± 0.034; with TTAATACCGC, 1.12 ± 0.022; with TTGACCGGGA, 1.14 ± 0.27.

As to CCCAGGAGGC, the switch fluorescence ratio stood at 1.08 ± 0.03. Regarding AGTCTGTTTC, the switch fluorescence ratio was determined as 0.999 ± 0.024. As to ATGGAATAT, the switch fluorescence ratio stood at 0.969 ± 0.038. With TATAGCGGGG, the switch fluorescence ratio was 1.02 ± 0.015. With CCTTTGTATT, the switch fluorescence ratio was determined as 1.04 ± 0.031. With ACTATTGGGT the figure was 0.988 ± 0.015.

On to GTTGCGCACA, for which the switch fluorescence ratio is 1.024 ± 0.0097. As to GACAACTTTT, the switch fluorescence ratio came out at 0.991 ± 0.016. To TTAATTTTTT belongs 0.995 ± 0.037; to TTTAAGTAGT, 1.01 ± 0.028. GGATGGAGGT: the switch fluorescence ratio was found to be 1 ± 0.023. AAATTCGGGG: the switch fluorescence ratio was 0.959 ± 0.037.

Take AGAGGCTGGT: the switch fluorescence ratio turned out to be 0.992 ± 0.017. In the case of CGTGGTGTTG, the switch fluorescence ratio came to 0.991 ± 0.015. With AAAATATGGG the figure was 0.987 ± 0.031. To CCTAACACGA belongs 1.11 ± 0.027; to GGTTACGGGG, 1.01 ± 0.013. TATGTCAAG: the switch fluorescence ratio was 1.02 ± 0.016. For AGGCCTGGG, the switch fluorescence ratio stood at 1 ± 0.016. Turning to TTGGTTTAGT, the switch fluorescence ratio came out at 1.01 ± 0.025. Consider TGGTTAGGGA, for which the switch fluorescence ratio is 1.01 ± 0.026. To GTGATGACAT belongs 1 ± 0.013. With AGAGAGGTCA the figure was 0.997 ± 0.042; with TGGGCGAAAA, 0.974 ± 0.045; with GCTATAGGGG, 1.02 ± 0.02. On to ATGGTCCGGT, for which the switch fluorescence ratio was 0.988 ± 0.015.

With CGATGATGGA, the switch fluorescence ratio is 0.999 ± 0.017. Regarding CTCTAAGGCT, the switch fluorescence ratio stood at 1.007 ± 0.009. In the case of ACGATAGGCC, the switch fluorescence ratio was found to be 1.03 ± 0.028.

Regarding TGGGTCTAGG, the switch fluorescence ratio was determined as 0.99 ± 0.043. Regarding TGGGGGTCGG, the switch fluorescence ratio was found to be 1.03 ± 0.017.

With TATGGCCAAT, the switch fluorescence ratio was found to be 1.03 ± 0.03.

In the case of GTCCAAGGGG, the switch fluorescence ratio was 1.04 ± 0.032. Consider TGATTTCAGG, for which the switch fluorescence ratio stood at 0.982 ± 0.062.

Regarding CGGACAGGGT, the switch fluorescence ratio was 0.992 ± 0.013. To GGTTATGGGA belongs 0.996 ± 0.032; to TCGGAGGCTT, 1 ± 0.027; to CTGATTGAGT, 0.9763 ± 0.0063.

Turning to GGTTAAGTAG, the switch fluorescence ratio came out at 1.004 ± 0.0075.

Take TTGGCGAAGG: the switch fluorescence ratio is 0.982 ± 0.045. With GTTGGGGGCA the figure was 0.968 ± 0.049.

For GCAAATGTGT, the switch fluorescence ratio was determined as 0.969 ± 0.026. As to GGGTCCCGGG, the switch fluorescence ratio worked out at 1.0586 ± 0.00036. To TTTATGAGT belongs 0.987 ± 0.022; to GTTGTTTTGA, 0.994 ± 0.022. With TGATTTTCCA the figure was 0.988 ± 0.021; with ATCGTTTCGT, 1.02 ± 0.019; with ACTAGGATTC, 0.986 ± 0.0028. Turning to CGAGGATGTG, the switch fluorescence ratio worked out at 0.964 ± 0.035.

As to GCGGTTGTTC, the switch fluorescence ratio was found to be 0.995 ± 0.034.

For GAATGGAGGT, the switch fluorescence ratio stood at 1.01 ± 0.021. Turning to TGTTTGAAAA, the switch fluorescence ratio came to 0.953 ± 0.027.

As for GTCACCCTTT, the switch fluorescence ratio came out at 1.01 ± 0.014. With GGCATGGTTT the figure was 1.01 ± 0.014. With GACTCAGACA the figure was 1.03 ± 0.047. With TCGCGTTGTG the figure was 1.02 ± 0.034; with ATCACTCGTA, 1.03 ± 0.043.

Regarding GTATGTACTG, the switch fluorescence ratio came to 1.04 ± 0.04. For the sequence CGTATAACTC, the switch fluorescence ratio worked out at 1.11 ± 0.014. To TCGACATGGT belongs 0.995 ± 0.041. With TAAACACGTG the figure was 0.987 ± 0.053; with TTAAGGGTAT, 1 ± 0.011.

On to CACTAAGGGA, for which the switch fluorescence ratio came out at 0.996 ± 0.014.

In the case of TTCGATGGGG, the switch fluorescence ratio came to 0.993 ± 0.048. With CTTTTTTTTC the figure was 1.03 ± 0.078; with TTTTTTCCGG, 1.21 ± 0.17. Regarding TTCGTTTTGG, the switch fluorescence ratio amounted to 1.01 ± 0.038.

For the sequence TGGGAAGATT, the switch fluorescence ratio was found to be 1.028 ± 0.0041. Take CTGGATGGAG: the switch fluorescence ratio came out at 0.9934 ± 0.0047. For AGTGGTTTTT, the switch fluorescence ratio stood at 0.9946 ± 0.0055.

For the sequence CTCGTTCGGC, the switch fluorescence ratio was found to be 0.98 ± 0.024.

For the origin of these results see the supplement of paper PMC10126150.
